Read-outs that look alike come from different tables or passages of the source.

Assay [1] concerns the target LRPL-1 (cDNA lacking the signal peptide) (C. elegans). In words: SPR; LRPL-1 biotinylated and captured on a Streptavidin chip, Biacore X100; DMA-1 ectodomain as analyte at 78 nM to 10 µM; HBS (10 mM HEPES pH 7.2, 150 mM NaCl) with 0.05% Tween-20 and 0.1% BSA; kinetic fit and steady-state fit (Langmuir 1:1). A general note: Surface plasmon resonance follows binding to a sensor surface in real time, without labels.

Assay [2] shares this target. The description is as above. This is another data set of the same source.

In general, Kd refers to the equilibrium constant for the complex coming apart. Low values mean higher affinity, high ones lower affinity. A word on the koff: it is the first-order rate constant of dissociation. Lower therefore signals slow dissociation. In general, kon refers to the second-order rate constant of association. Read a low kon as slow association. As to “DMA-1 ectodomain (amino acids Leu20 to Leu507) (domain or fragment)”, the Kd in assay [1] came to 6.9 µM. In assay [2], this substance had a Kd of 3.9 µM, a koff of 0.018 s⁻¹ and an on-rate constant (kon) of 4600 M⁻¹ s⁻¹.

Source of the values: PMC9433327.
